The data set has as its target Ago2 (human, UniProt Q9UKV8 1-859). Nature of the data set: EMSA; Ago2 12.5, 25, 50, 100 mM (so in the source) with 40 mM miR-965; 1 mM MgCl2; shifted band increases with Ago2; 0.1 M KCl, 1 mM DTT, 1 mM MgCl2, 10 mM HEPES pH 7.6, 30 min at 37 C; 1% agarose gel, ethidium bromide then Coomassie stain. The conditions noted are these: protein: recombinant; single strand printed.

Sequence of Ago2 (Q9UKV8 whole entry): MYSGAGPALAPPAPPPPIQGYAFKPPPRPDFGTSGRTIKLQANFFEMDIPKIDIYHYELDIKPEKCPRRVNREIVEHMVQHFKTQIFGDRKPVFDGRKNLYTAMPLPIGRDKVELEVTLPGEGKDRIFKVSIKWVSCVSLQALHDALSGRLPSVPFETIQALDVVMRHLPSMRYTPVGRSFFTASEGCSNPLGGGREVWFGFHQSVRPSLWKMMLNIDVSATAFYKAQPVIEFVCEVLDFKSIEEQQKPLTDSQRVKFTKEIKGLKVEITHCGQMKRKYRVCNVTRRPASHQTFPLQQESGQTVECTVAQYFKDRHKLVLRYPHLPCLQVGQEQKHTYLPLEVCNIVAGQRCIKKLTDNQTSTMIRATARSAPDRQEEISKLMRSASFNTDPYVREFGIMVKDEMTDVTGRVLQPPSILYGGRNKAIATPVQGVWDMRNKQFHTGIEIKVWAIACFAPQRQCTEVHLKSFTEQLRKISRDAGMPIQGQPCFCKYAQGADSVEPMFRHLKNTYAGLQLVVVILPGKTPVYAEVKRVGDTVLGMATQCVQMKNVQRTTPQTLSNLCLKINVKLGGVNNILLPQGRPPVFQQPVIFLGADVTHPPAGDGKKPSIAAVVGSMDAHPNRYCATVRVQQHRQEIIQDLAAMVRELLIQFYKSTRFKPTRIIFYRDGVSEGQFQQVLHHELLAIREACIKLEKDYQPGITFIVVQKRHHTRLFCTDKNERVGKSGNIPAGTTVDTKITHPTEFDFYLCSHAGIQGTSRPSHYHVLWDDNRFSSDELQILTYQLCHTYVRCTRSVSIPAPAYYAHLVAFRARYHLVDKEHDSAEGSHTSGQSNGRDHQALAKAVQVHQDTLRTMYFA

B1: shrimp miR-965 (ssRNA)
RNA: UAAGCGUAUGGCUUUUCCCCUC
In the case of B1, the binding result was “binds”.

The values are drawn from paper PMC7318764, “Shrimp miR-965 induced the human melanoma stem-like cell apoptosis and inhibited their stemness by disrupting the MCL-1-ER stress-XBP1 feedback loop in a cross-species manner”.
